# Results from patent publication US20090258007A1 (Kyowa Kirin, published 2009).
# B1: anti-PERP mouse antibody KM3411 (antibody, V domains shown)
# VH: DVQLQESGPGLVKPSQSLSLTCTVTGFSITTEYAWNWIRQFPGNRLEWMGYIGYTGRTNYSPSLKSRISITRDTSKNQFFLQLNSVTTEDTATYYCTRMDYWGQGTSVTVSS
# VL: QIVLIQSPVIMSASPGEKVTITCSASSSVSYMHWFQQKPGTSPKLWIYSTSNLASGVPARFSGSGSGTSYSLTISRMEAEDAATYYCQQRSSYPPTFGAGTKLELK
# notes: Used as hybridoma culture supernatant or purified antibody; also called monoclonal antibody KM3411; monoclonal antibody produced by hybridoma KM3411 (FERM BP-8643)
# B2: anti-PERP chimeric antibody KM3481 (antibody, V domains shown)
# VH: DVQLQESGPGLVKPSQSLSLTCTVTGFSITTEYAWNWIRQFPGNRLEWMGYIGYTGRTNYSPSLKSRISITRDTSKNQFFLQLNSVTTEDTATYYCTRMDYWGQGTSVTVSS
# VL: QIVLIQSPVIMSASPGEKVTITCSASSSVSYMHWFQQKPGTSPKLWIYSTSNLASGVPARFSGSGSGTSYSLTISRMEAEDAATYYCQQRSSYPPTFGAGTKLELK
# notes: Human chimeric antibody: VH and VL of KM3411 with human CH and CL from the vector pKANTEX93 (WO 97/10354)
# Experiments:
# [1] = biological target: T1, human PERP with myc-His tag expressed in CHO/DG44 cells (PERP/CHO cell) (human, UniProt Q96FX8 1-193); experiment: flow cytometry on PERP/CHO cells against CHO/DG44 cells, 10 µg/ml
# T1 construct: Four-pass membrane protein of 193 amino acids; On intact cells in FMAT and flow cytometry; as Triton X lysate in sandwich ELISA and immunoprecipitation; SDS-denatured in Western blotting; also called PERP/CHO cells; PERP-expressing cell line; not shown: C-terminal myc-His tag from pcDNA 3.1(-)/myc-His C
# Procedure: As the cells, PERP/CHO cells and CHO/DG44 cells were used. The cells which were cultured for 2 to 3 days on an Iscove's Modified Dulbecco's medium (manufactured by Invitrogen) containing 10% fetal bovine serum and peeled off by 0.02% EDTA solution (manufactured by Nacalai Tesque) were washed with PBS and blocked for 20 minutes at ice temperature using BSA-PBS in order to avoid non-specific antibody adsorption. […] Again, washing was carried out 3 times using PBS by a centrifugation method, followed by suspension in PBS, and wavelength of 510 to 530 nm excited by laser beam 488 nm Ar was measured by a flow cytometer (manufactured by Beckman Coulter).
# [2] = biological target: T1, human PERP with myc-His tag expressed …; experiment: flow cytometry on PERP/CHO cells, 5-fold dilutions from 20 µg/mL
# Procedure: After washing with a buffer for FCM twice, a solution in which PE-labeled anti-human IgG (H+L) antibody (manufactured by Beckman Coulter) was diluted 50-fold with a buffer for FCM was added thereto at 50 μL/well. After reaction in ice shading from the light for 30 minutes, washing with a buffer for FCM was carried out 3 times and fluorescence intensity was measured using a flow cytometer.
Binder,binding result [1],binding result [2]
B1,binds,
B2,,binds
